Experimental data from paper PMC3656769.

B1: Transferrin receptor 2 (hTfR2): 3-Mut (protein)
parent chain: MERLWGLFQRAQQLSPRSSQTVYQRVEGPRKGHLEEEEEDGEEGAETLAHFCPMELRGPEPLGSRPRQPNLIPWAAAGRRAAPYLVLTALLIFTGAFLLGYVAFRGSCQACGDSVLVVSEDVNYEPDLDFHQGRLYWSDLQAMFLQFLGEGRLEDTIRQTSLRERVAGSAGMAALTQDIRAALSRQKLDHVWTDTHYVGLQFPDPAHPNTLHWVDEAGKVGEQLPLEDPDVYCPYSAIGNVTGELVYAHYGRPEDLQDLRARGVDPVGRLLLVRVGVISFAQKVTNAQDFGAQGVLIYPEPADFSQDPPKPSLSSQQAVYGHVHLGTGDPYTPGFPSFNQTQFPPVASSGLPSIPAQPISADIASRLLRKLKGPVAPQEWQGSLLGSPYHLGPGPRLRLVVNNHRTSTPINNIFGCIEGRSEPDHYVVIGAQRDAWGPGAAKSAVGTAILLELVRTFSSMVSNGFRPRRSLLFISWDGGDFGSVGSTEWLEGYLSVLHLKAVVYVSLDNAVLGDDKFHAKTSPLLTSLIESVLKQVDSPNHSGQTLYEQVVFTNPSWDAEVIRPLPMDSSAYSFTAFVGVPAVEFSFMEDDQAYPFLHTKEDTYENLHKVLQGRLPAVAQAVAQLAGQLLIRLSHDRLLPLDFGRYGDVVLRHIGNLNEFSGDLKARGLTLQWVYSARGDYIRAAEKLRQEIYSSEERDERLTRMYNVRIMRVEFYFLSQYVSPADSPFRHIFMGRGDHTLGALLDHLRLLRSNSSGTPGATSSTGFQESRFRRQLALLTWTLQGAANALSGDVWNIDNNF
B2: Transferrin receptor 2 (hTfR2): N339A (protein)
parent chain: B1 parent chain
B3: Transferrin receptor 2 (hTfR2): N754A (protein)
parent chain: B1 parent chain
B4: Transferrin receptor 2 (hTfR2): N240A (protein)
parent chain: B1 parent chain

Experiments:
Conditions in all cases: glycan lost; control: wild type
[1] = cell surface biotinylation, Western, HEK 293
[2] = surface biotinylation, FLAG IP, nonreducing Avidin-HRP blot, Hep3B
[3] = confocal immunofluorescence, nonpermeabilized HEK 293
[4] = nonreducing SDS-PAGE Western, Hep3B stable cells
[5] = Western after 12 h holo-Tf, Hep3B transient and stable

| Protein | localisation_or_trafficking [1] | localisation_or_trafficking [2] | localisation_or_trafficking [3] | oligomerisation [4] | other: holo-Tf-induced stabilisation (protein level), fold_change [5] |
| --- | --- | --- | --- | --- | --- |
| B1 | no change | no change | no change | decreases |  |
| B2 |  |  |  |  | no change |
| B3 |  |  |  |  | no change |
| B4 |  |  |  |  | no change |
